{
  "source": "patent US20250144228A1",
  "about": "“NANOBODY-DRUG ADDUCTS AND USES THEREOF” (priority 2022, published 2025)",
  "key": {"[1]": {"test_system": "MICA*009", "assay_type": "binding, human"}, "[2]": {"molecular_target": "MICA*002 (Homo sapiens, UniProt Q29983, K148E/T47A/W37G)", "sequence (Q29983 24-307 W37G/T47A/K148E)": "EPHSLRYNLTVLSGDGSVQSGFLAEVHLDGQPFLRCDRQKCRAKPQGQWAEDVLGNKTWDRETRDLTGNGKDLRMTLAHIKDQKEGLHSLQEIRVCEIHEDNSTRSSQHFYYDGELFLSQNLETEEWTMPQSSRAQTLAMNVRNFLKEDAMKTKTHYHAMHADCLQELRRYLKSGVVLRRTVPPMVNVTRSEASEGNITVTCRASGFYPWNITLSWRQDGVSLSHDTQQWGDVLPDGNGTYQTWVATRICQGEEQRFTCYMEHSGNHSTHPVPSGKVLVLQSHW", "assay_type": "binding"}, "[3]": {"molecular_target": "MICA*008 (Homo sapiens, UniProt Q29983, C59Y/G229S/K148E/K196E/M152V/Q274R/S238T/T236I/T47A/W233R)", "sequence (Q29983 24-307 T47A/C59Y/K148E/M152V/K196E/G229S/W233R/T236I/S238T/Q274R)": "as the sequence (Q29983 24-307 W37G/T47A/K148E) above, with G14W, C36Y, M129V, K173E, G206S, W210R, T213I, S215T, Q251R counted along it", "assay_type": "binding"}, "[4]": {"molecular_target": "influenza A hemagglutinin"}, "[5]": {"test_system": "P. falciparum merozoite surface protein 1 (MSP-1) subunits p83, p38, p42", "assay": "ELISA of biotinylated VHHs on plate-bound MSP-1 subunits", "assay_type": "binding, Plasmodium falciparum", "settings": "streptavidin-HRP and TMB", "description": "(§1) FIGS. 13A-13D: VHH nanobodies bind specifically to Plasmodium falciparum: merozoite surface protein 1 (MSP-1). FIG. 13A: Schematic of the PfMSP-1 pro-peptide and the four inclusive subunits: p83, p30, p38, and p42. FIG. 13B: Purified […] B4, anti-p38 B8, anti-p42 A6, and anti-p42 G11 VHHs were biotinylated and these VHHs were incubated with plate bound subunits proteins as indicated. Binding ELISA was detected by using streptavidin-HRP and tetramethylbenzidine (TMB). Data are represented as optical density (OD). Error bars show SEM. FIG. 13C: Western blot of VHHs against the three PfMSP-1 subunits, the full length p190 pro-peptide, and some 3D7 lysates from −38-44 hour 3D7 schizonts. FIG. 13D: Flow cytometry on synchronized ˜38-44 hour 3D7 schizonts using fluorescently (Cy5) labeled VHHs.\n(§2) Purified VHH nanobodies were biotinylated and tested for specificity toward isolated MSP-1 subunits. Anti-p83 B4, anti-p38 B8, anti-p42 A6, and anti-p42 G11 VHHs were each incubated with plate-bound p83, p38, p42, and p42, and binding to the plates was detected by an enzyme-linked immunoassay (ELISA) using streptavidin-horseradish peroxidase (HRP) and tetramethylbenzidine (TMB). […] Finally, purified VHHs were tested against live ˜38-44 hour 3D7 schizonts in a flow cytometry assay."}, "[6]": {"test_system": "PfMSP-1 subunits, full length p190 pro-peptide", "assay_type": "binding, Plasmodium falciparum", "description": "as §1, with “FIG.” for “FIGS. 13A-13D: VHH nanobodies bind specifically to Plasmodium falciparum: merozoite surface protein 1 (MSP-1). FIG.”\nas §2"}, "[7]": {"molecular_target": "T1, MICB-transfected B16F10 cells (Homo sapiens, UniProt Q29980)", "T1 construct": "expressed in transfected cells; host or cells: B16F10 mouse melanoma cells", "T1 sequence (Q29980 23-383)": "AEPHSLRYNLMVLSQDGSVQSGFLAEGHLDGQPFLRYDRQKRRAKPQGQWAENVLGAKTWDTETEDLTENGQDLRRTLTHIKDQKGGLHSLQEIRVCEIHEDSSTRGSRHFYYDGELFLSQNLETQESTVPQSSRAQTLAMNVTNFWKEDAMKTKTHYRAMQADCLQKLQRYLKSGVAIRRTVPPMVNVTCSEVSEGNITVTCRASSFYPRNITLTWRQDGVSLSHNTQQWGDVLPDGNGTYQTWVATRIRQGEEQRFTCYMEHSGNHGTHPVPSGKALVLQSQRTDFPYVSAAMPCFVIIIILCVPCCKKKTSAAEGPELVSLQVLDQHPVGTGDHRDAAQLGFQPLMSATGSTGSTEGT", "assay": "Flow cytometry of transfected B16F10 melanoma cells", "assay_type": "binding", "settings": "biotinylated, streptavidin-PE", "excerpt": "(§3) FIGS. 17A-17E: Development of MHC class I polypeptide-related sequence A (MICA)-specific nanobodies. FIG. 17A: Comparison of amino acid sequences of 9 MICA-specific nanobodies that were identified and cloned into a pHen6 expression vector. FIG. 17B: Immunoblots showing specific binding of biotinylated A1 and H3 anti-MICA nanobody clones for purified MICA*009 antigen in whole cell lysate. FIG. 17C: Quantification of ELISA cross-competition assays to determine binding epitopes for anti-MICA nanobodies. A decrease in intensity measured at 450 nm as compared to a single nanobody alone is indicative of binding to the same epitope. Cross-competition is shown for A1 (left) and H3 (right) anti-MICA nanobody clones. FIG. 17D: Quantification of anti-MICA nanobody binding to MICA allelic products as determined by ELISA. A significant increase in intensity measured at 450 nm as compared to uncoated ELISA control is indicative of binding. FIG. 17E: Flow cytometry of B16F10 cells transfected with empty vector, MICA, or MHC class I polypeptide-related sequence B (MICB) using A1 and H3 anti-MICA nanobody clones.\n(§4) To further assess whether the isolated anti-MICA VHH nanobodies would bind to MICA on the surface of cells, A1 and H3 nanobody clones were generated against soluble, recombinant MICA*009 and cell binding was assessed by flow cytometry. Binding was assessed using B16F10 melanoma cells transfected to express either MICA or MICB, or an empty vector (EV) as a negative control. Biotinylated A1 and H3 nanobodies were labeled with streptavidin-phycoerythrin (PE) and used for cytofluorimetry of transfected B16F10 cells."}, "[8]": {"molecular_target": "T2, MICA-transfected B16F10 cells (Homo sapiens, UniProt Q29983)", "T2 construct": "expressed in transfected cells; host or cells: B16F10 mouse melanoma cells", "T2 sequence (Q29983 24-383)": "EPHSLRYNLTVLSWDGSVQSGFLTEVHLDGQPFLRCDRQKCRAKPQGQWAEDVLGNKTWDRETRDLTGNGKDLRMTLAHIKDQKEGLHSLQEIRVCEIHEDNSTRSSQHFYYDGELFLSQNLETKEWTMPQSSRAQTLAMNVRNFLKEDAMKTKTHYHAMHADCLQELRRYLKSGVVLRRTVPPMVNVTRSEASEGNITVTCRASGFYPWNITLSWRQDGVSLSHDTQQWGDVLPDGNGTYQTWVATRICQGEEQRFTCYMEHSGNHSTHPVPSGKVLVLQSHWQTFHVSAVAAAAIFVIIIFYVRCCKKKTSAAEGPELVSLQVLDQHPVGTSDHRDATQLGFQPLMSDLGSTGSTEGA", "assay": "Flow cytometry of transfected B16F10 melanoma cells", "assay_type": "binding", "settings": "biotinylated, streptavidin-PE", "excerpt": "as §3, §4"}, "[9]": {"test_system": "purified MICA*009 antigen in whole cell lysate", "assay": "Immunoblot with biotinylated anti-MICA nanobodies", "assay_type": "binding, human", "settings": "1 μg/mL, streptavidin-HRP"}, "[10]": {"test_system": "empty vector (EV)-transfected B16F10 cells", "assay_type": "binding", "settings": "biotinylated, streptavidin-PE"}},
  "data": [
    {"molecule": "B11: VHH specific for MICA, SEQ ID NO: 20 (protein) VHH: MAQVQLVETGGGLVQPGGSLRLSCAASGFTLDYYAIGWFRQAPGKEREGVSCITSDGNTYYADSVKGRFTISRDNAKNTVYLQMNSLKPEDTAVYYCAADCLSSTWRTNAYLGQGTQVTVSSGGLPETGGHHHHHH", "values": [
      {"measurement": "binding to MICA variant (ELISA)", "setting": "[1]", "value": "observed to bind"},
      {"measurement": "binding to MICA variant (ELISA)", "setting": "[2]", "value": "not observed to bind"},
      {"measurement": "binding to MICA variant (ELISA)", "setting": "[3]", "value": "observed to bind"}
    ]},
    {"molecule": "E9: VHH specific for MICA, SEQ ID NO: 23 (protein) VHH: MAQVQLVETGGGLVQPGGSLRLSCAASGFTLEHYAIGWFRQAPGKEQEGVSCITSDGDTYYADSVKGRFTISRDNAKNTVYLQMNSLKPEDTAVYYCAADCLSSNWRTSAYWAQGTQVTVSSGGLPETGGHHHHHH", "values": [
      {"measurement": "binding to MICA variant (ELISA)", "setting": "[1]", "value": "observed to bind"},
      {"measurement": "binding to MICA variant (ELISA)", "setting": "[2]", "value": "not observed to bind"},
      {"measurement": "binding to MICA variant (ELISA)", "setting": "[3]", "value": "observed to bind"}
    ]},
    {"molecule": "genetically fused VHHkappa-SD36: VHHkappa N-terminally linked to SD36 by (GGGGS)3 linker, SEQ ID NO: 5 (protein) QVQLVESGGGWVQPGGSLRLSCAASGFTFSDTAMMWVRQAPGKGREWVAAIDTGGGYTYYADSVKGRFTISRDNAKNTLYLQMNSLKPEDTARYYCAKTYSGNYYSNYTVANYGTTGRGTLVTVSSAAAGGGGSGGGGSGGGGSEVQLVESGGGLVQAGGSLKLSCAASGRTYAMGWFRQAPGKEREFVAHINALGTRTYYSDSVKGRFTISRDNAKNTEYLEMNNLKPEDTAVYYCTAQGQWRAAPVAVAAEYEFWGQGTQVTVSSGGLPETGGHHHHHH", "values": [
      {"measurement": "affinity for influenza A hemagglutinin, in words", "setting": "[4]", "value": "low nanomolar"}
    ]},
    {"molecule": "anti-p42 A6: VHH specific for P. falciparum MSP-1 p42, SEQ ID NO: 7 (protein) VHH: QVQLVESGGGLVQAGGSLRLSCAASARTFSYYGAAWFRQAPGKEREFVAAVSWNGDDTYYADSVKGRFTISRDNTKNTVSLQMNALKPEDTAVYYCEAAAYGRDWRQSANYVYWGQGTQVTVSSLPETGGHHHHHH", "values": [
      {"measurement": "binding to plate-bound MSP-1 subunits (ELISA)", "setting": "[5]", "value": "bind specifically to one subunit"},
      {"measurement": "binding to MSP-1 subunits and pro-peptide p190 (gel electrophoresis / Western blot)", "setting": "[6]", "value": "bind to one subunit of MSP-1 and to the MSP-1 pro-peptide (p190), but not to any other subunit"}
    ]},
    {"molecule": "anti-p42 G11: VHH specific for P. falciparum MSP-1 p42, SEQ ID NO: 16 (protein) VHH: QVQLVETGGGLVQAGGSLRLSCVVSGRSLILYGMGWFRQAPGKEREFVAGIVWNGGWTYYADSVKGRFTISRDTAKNTVYLQMNSLKPEDTAVYSCAAGPGDGRRRVAPAEYNYWGQGTQVTVSSLPETGGHHHHHH", "values": [
      {"measurement": "binding to plate-bound MSP-1 subunits (ELISA)", "setting": "[5]", "value": "bind specifically to one subunit"},
      {"measurement": "binding to MSP-1 subunits and pro-peptide p190 (gel electrophoresis / Western blot)", "setting": "[6]", "value": "bind to one subunit of MSP-1 and to the MSP-1 pro-peptide (p190), but not to any other subunit"}
    ]},
    {"molecule": "VHHkappa-SD36 conjugated through click chemistry: SD36-azide conjugated to VHHkappa-DBCO through copper-free click reaction (protein) VHH 1: QVQLVESGGGWVQPGGSLRLSCAASGFTFSDTAMMWVRQAPGKGREWVAAIDTGGGYTYYADSVKGRFTISRDNAKNTLYLQMNSLKPEDTARYYCAKTYSGNYYSNYTVANYGTTGRGTLVTVSSGG VHH 2: EVQLVESGGGLVQAGGSLKLSCAASGRTYAMGWFRQAPGKEREFVAHINALGTRTYYSDSVKGRFTISRDNAKNTEYLEMNNLKPEDTAVYYCTAQGQWRAAPVAVAAEYEFWGQGTQVTVSSGG", "values": [
      {"measurement": "affinity for influenza A hemagglutinin, in words", "setting": "[4]", "value": "low nanomolar"},
      {"measurement": "affinity relative to genetically conjugated VHHkappa-SD36", "setting": "[4]", "value": "higher affinity"}
    ]},
    {"molecule": "A1: VHH specific for MICA, SEQ ID NO: 19 (protein) VHH: MAQVQLVESGGGLVQPGGSLRLSCAASGFTLDYYDIGWFRQAPGKEREGVSCITSSDGSTYYADSVKGRFTISRDNAKNTVYLQMNSLKPEDTAVYYCAADCTKPQWKSKTEAWGQGTQVTVSSGGLPETGGHHHHHH", "values": [
      {"measurement": "staining of transfected cells", "setting": "[7]", "value": "neither nanobody clone stained"},
      {"measurement": "staining of transfected cells", "setting": "[8]", "value": "robust staining"},
      {"measurement": "luminescent signal on immunoblots", "setting": "[9]", "value": "strong and specific luminescent signal"},
      {"measurement": "binding to MICA variant (ELISA)", "setting": "[1]", "value": "observed to bind"},
      {"measurement": "binding to MICA variant (ELISA)", "setting": "[2]", "value": "not observed to bind"},
      {"measurement": "binding to MICA variant (ELISA)", "setting": "[3]", "value": "observed to bind"},
      {"measurement": "staining of transfected cells", "setting": "[10]", "value": "neither nanobody clone stained"}
    ]},
    {"molecule": "H3: VHH specific for MICA, SEQ ID NO: 24 (protein) VHH: MAQVQLVETGGGLVQAGGSLRLSCAASGRTFSSYAMGWFRQAPGKEREFVAGISWSGGSTYYGDSVKGRFTISRDNAKNTVYLLMNSLKPEDTAVYYCAADLVRSYGSSWPSLFQFRNPEDVQDGMDYWGKGTLVTVSSGGLPETGGHHHHHH", "values": [
      {"measurement": "staining of transfected cells", "setting": "[7]", "value": "neither nanobody clone stained"},
      {"measurement": "staining of transfected cells", "setting": "[8]", "value": "robust staining"},
      {"measurement": "luminescent signal on immunoblots", "setting": "[9]", "value": "strong and specific luminescent signal"},
      {"measurement": "binding to MICA variant (ELISA)", "setting": "[1]", "value": "observed to bind"},
      {"measurement": "binding to MICA variant (ELISA)", "setting": "[2]", "value": "not observed to bind"},
      {"measurement": "binding to MICA variant (ELISA)", "setting": "[3]", "value": "observed to bind"},
      {"measurement": "staining of transfected cells", "setting": "[10]", "value": "neither nanobody clone stained"}
    ]}
  ]
}
